Assay results: the Human Domainome abundance scans (Beltran et al. 2025)
± gives the uncertainty stated by the source.

B1: RNA-binding E3 ubiquitin-protein ligase MEX3C, residues 325 to 391; numbered along this chain, Q5U5Q3 (parent)
chain: GQTTVQVRVPYRVVGLVVGPKGATIKRIQQQTHTYIVTPSRDKEPVFEVTGMPENVDRAREEIEMHI

Variants of: B1
Test: abundance fitness (aPCA) (normalised: wild type 0, dead -1); higher = more abundant; growth selection in yeast, the domain comes from the species named
Details: Homo sapiens

| Variant | abundance fitness |
| --- | --- |
| GQTTVQVRVPYDVVGLVVGPKGATIKRIQQQTHTYIVTPSRDKEPVFEVTGMPENVDRAREEIEMHI | 0.159 ± 0.074 |
| GQTTVQVRVPYAVVGLVVGPKGATIKRIQQQTHTYIVTPSRDKEPVFEVTGMPENVDRAREEIEMHI | 0.001 ± 0.059 |
| GQTTVQVRVPYVVVGLVVGPKGATIKRIQQQTHTYIVTPSRDKEPVFEVTGMPENVDRAREEIEMHI | -0.652 ± 0.11 |
| GQTTVQVRVPYGVVGLVVGPKGATIKRIQQQTHTYIVTPSRDKEPVFEVTGMPENVDRAREEIEMHI | 0.143 ± 0.046 |
| GQTTVQVRVPYLVVGLVVGPKGATIKRIQQQTHTYIVTPSRDKEPVFEVTGMPENVDRAREEIEMHI | -0.588 ± 0.099 |
| GQTTVQVRVPYKVVGLVVGPKGATIKRIQQQTHTYIVTPSRDKEPVFEVTGMPENVDRAREEIEMHI | 0.063 ± 0.06 |
| GQTTVQVRVPYEVVGLVVGPKGATIKRIQQQTHTYIVTPSRDKEPVFEVTGMPENVDRAREEIEMHI | 0.136 ± 0.064 |
| GQTTVQVRVPYTVVGLVVGPKGATIKRIQQQTHTYIVTPSRDKEPVFEVTGMPENVDRAREEIEMHI | -0.201 ± 0.079 |
| GQTTVQVRVPYFVVGLVVGPKGATIKRIQQQTHTYIVTPSRDKEPVFEVTGMPENVDRAREEIEMHI | -0.11 ± 0.12 |
| GQTTVQVRVPYHVVGLVVGPKGATIKRIQQQTHTYIVTPSRDKEPVFEVTGMPENVDRAREEIEMHI | -0.189 ± 0.23 |
| GQTTVQVRVPYSVVGLVVGPKGATIKRIQQQTHTYIVTPSRDKEPVFEVTGMPENVDRAREEIEMHI | 0.175 ± 0.069 |
| GQTTVQVRVPYMVVGLVVGPKGATIKRIQQQTHTYIVTPSRDKEPVFEVTGMPENVDRAREEIEMHI | -0.401 ± 0.17 |
| GQTTVQVRVPYYVVGLVVGPKGATIKRIQQQTHTYIVTPSRDKEPVFEVTGMPENVDRAREEIEMHI | -0.064 ± 0.12 |
| GQTTVQVRVPYPVVGLVVGPKGATIKRIQQQTHTYIVTPSRDKEPVFEVTGMPENVDRAREEIEMHI | 0.054 ± 0.086 |
| GQTTVQVRVPYQVVGLVVGPKGATIKRIQQQTHTYIVTPSRDKEPVFEVTGMPENVDRAREEIEMHI | 0.013 ± 0.088 |
| GQTTVQVRVPYIVVGLVVGPKGATIKRIQQQTHTYIVTPSRDKEPVFEVTGMPENVDRAREEIEMHI | -0.373 ± 0.12 |
| GQTTVQVRVPYNVVGLVVGPKGATIKRIQQQTHTYIVTPSRDKEPVFEVTGMPENVDRAREEIEMHI | 0.141 ± 0.13 |
| GQTTVQVRVPYRVVWLVVGPKGATIKRIQQQTHTYIVTPSRDKEPVFEVTGMPENVDRAREEIEMHI | -0.779 ± 0.14 |
| GQTTVQVRVPYRVVMLVVGPKGATIKRIQQQTHTYIVTPSRDKEPVFEVTGMPENVDRAREEIEMHI | -0.459 ± 0.12 |
| GQTTVQVRVPYRVVCLVVGPKGATIKRIQQQTHTYIVTPSRDKEPVFEVTGMPENVDRAREEIEMHI | -0.59 ± 0.19 |

| Variant | abundance fitness |
| --- | --- |
| GQTTVQVRVPYRVVPLVVGPKGATIKRIQQQTHTYIVTPSRDKEPVFEVTGMPENVDRAREEIEMHI | -0.093 ± 0.077 |
| GQTTVQVRVPYRVVILVVGPKGATIKRIQQQTHTYIVTPSRDKEPVFEVTGMPENVDRAREEIEMHI | -0.872 ± 0.42 |
| GQTTVQVRVPYRVVHLVVGPKGATIKRIQQQTHTYIVTPSRDKEPVFEVTGMPENVDRAREEIEMHI | -0.059 ± 0.086 |
| GQTTVQVRVPYRVVSLVVGPKGATIKRIQQQTHTYIVTPSRDKEPVFEVTGMPENVDRAREEIEMHI | -0.128 ± 0.062 |
| GQTTVQVRVPYRVVDLVVGPKGATIKRIQQQTHTYIVTPSRDKEPVFEVTGMPENVDRAREEIEMHI | 0.018 ± 0.077 |
| GQTTVQVRVPYRVVVLVVGPKGATIKRIQQQTHTYIVTPSRDKEPVFEVTGMPENVDRAREEIEMHI | -0.986 ± 0.14 |
| GQTTVQVRVPYRVVKLVVGPKGATIKRIQQQTHTYIVTPSRDKEPVFEVTGMPENVDRAREEIEMHI | -0.235 ± 0.076 |
| GQTTVQVRVPYRVVRLVVGPKGATIKRIQQQTHTYIVTPSRDKEPVFEVTGMPENVDRAREEIEMHI | -0.212 ± 0.052 |
| GQTTVQVRVPYRVVALVVGPKGATIKRIQQQTHTYIVTPSRDKEPVFEVTGMPENVDRAREEIEMHI | -0.067 ± 0.051 |
| GQTTVQVRVPYRVVNLVVGPKGATIKRIQQQTHTYIVTPSRDKEPVFEVTGMPENVDRAREEIEMHI | -0.234 ± 0.17 |
| GQTTVQVRVPYRVVQLVVGPKGATIKRIQQQTHTYIVTPSRDKEPVFEVTGMPENVDRAREEIEMHI | -0.181 ± 0.087 |
| GQTTVQVRVPYRVVYLVVGPKGATIKRIQQQTHTYIVTPSRDKEPVFEVTGMPENVDRAREEIEMHI | -0.691 ± 0.21 |
| GQTTVQVRVPYRVVELVVGPKGATIKRIQQQTHTYIVTPSRDKEPVFEVTGMPENVDRAREEIEMHI | -0.121 ± 0.068 |
| GQTTVQVRVPMRVVGLVVGPKGATIKRIQQQTHTYIVTPSRDKEPVFEVTGMPENVDRAREEIEMHI | 0.154 ± 0.074 |
| GQTTVQVRVPGRVVGLVVGPKGATIKRIQQQTHTYIVTPSRDKEPVFEVTGMPENVDRAREEIEMHI | -0.013 ± 0.052 |
| GQTTVQVRVPFRVVGLVVGPKGATIKRIQQQTHTYIVTPSRDKEPVFEVTGMPENVDRAREEIEMHI | -0.514 ± 0.12 |
| GQTTVQVRVPNRVVGLVVGPKGATIKRIQQQTHTYIVTPSRDKEPVFEVTGMPENVDRAREEIEMHI | -0.014 ± 0.11 |
| GQTTVQVRVPERVVGLVVGPKGATIKRIQQQTHTYIVTPSRDKEPVFEVTGMPENVDRAREEIEMHI | 0.402 ± 0.09 |
| GQTTVQVRVPKRVVGLVVGPKGATIKRIQQQTHTYIVTPSRDKEPVFEVTGMPENVDRAREEIEMHI | 0.369 ± 0.071 |
| GQTTVQVRVPHRVVGLVVGPKGATIKRIQQQTHTYIVTPSRDKEPVFEVTGMPENVDRAREEIEMHI | 0.17 ± 0.09 |
